Experimental data from the supplement of paper PMC7877785.
± gives the uncertainty stated by the source.

Assay: self-splicing fitness, log relative to wild type (ln ratio); higher = more splicing; Tetrahymena group I intron in knt gene, E. coli kanamycin selection, DiMSum; sequences stand for … in CUCUCU…GGAGGGAAAAGUUAUCAGGCAUGCACCUGGUAGCUAGUCUUUAAACCAAUAGAUUGCAUCGGUUUAAAAGGCAAGACCGUCAAAUUGCGGGAAAGGGGUCAACAGCCGUUCAGUACCAAGUCUCAGGGGAAACUUUGAGAUGGCCUUGCAAAGGGUAUGGUAAUAAGCUGACGGACAUGGUCCUAACCACGCAGCCAAGUCCUAAGUCAACAGAUCUUCUGUUGAUAUGGAUGCAGUUCACAGACUAAAUGUCGGUCGGGGAAGAUGUAUUCUUCUCAUAAGAUAUAGUCGGACCUCUCCUUAAUGGGAGCUAGCGGAUGAAGUGAUGCAACACUGGAGCCGCUGGGAACUAAUUUGUAUGCGAAAGUAUAUUGAUUAGUUUUGGAGUACUCGUGGUCG
Outline: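 DiMSum derived fitness as the error-weighted combination of fold changes across replicates, kanamycin versus no kanamycin, normalised to wild type. E. coli BL21(DE3) held the library, which randomised all eight P1ex-region intron nucleotides within the knt kanamycin-resistance gene on pET-22b(+). Six replicate transformations grew overnight at 37°C or 30°C on LB agar with or without 25 μg/mL kanamycin, also containing 100 μg/mL carbenicillin, 50 μM IPTG and 0.2% rhamnose, and pooled colonies were amplicon-sequenced on an Illumina HiSeq 2500.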

| Sequence | self-splicing fitness (ln) (30 °C) | self-splicing fitness (ln) (37 °C) |
| --- | --- | --- |
| AAUAAGCAAUAUUACGCAGU | -3.08 ± 0.22 | -2.04 ± 0.19 |
| AAUAAGCAAUAUUACGCUGA | -1.81 ± 0.17 | -1.63 ± 0.18 |
| AAUAAGCAAUAUUACGGAAC | -4.53 ± 0.34 | -2.16 ± 0.23 |
| AAUAAGCAAUAUUACGGACA | -0.911 ± 0.13 | 0.0108 ± 0.14 |
| AAUAAGCAAUAUUACGGCGA | -0.134 ± 0.079 | -0.274 ± 0.1 |
| AAUAAGCAAUAUUACGGGAU | -2.73 ± 0.15 | -1.33 ± 0.14 |
| AAUAAGCAAUAUUACGGGCC | -2.8 ± 0.39 | -2.21 ± 0.31 |
| AAUAAGCAAUAUUACGGGGA | -3.01 ± 0.21 | -1.42 ± 0.16 |
| AAUAAGCAAUAUUACGGGUU | -2.37 ± 0.13 | -1.43 ± 0.16 |
| AAUAAGCAAUAUUACGGUCC | -1.47 ± 0.14 | -0.63 ± 0.22 |
| AAUAAGCAAUAUUACGUAAG | -2.06 ± 0.072 | -0.567 ± 0.084 |
| AAUAAGCAAUAUUACGUAGG | -2.11 ± 0.16 | -0.935 ± 0.17 |
| AAUAAGCAAUAUUACGUCAA | -2.29 ± 0.14 | -2.06 ± 0.12 |
| AAUAAGCAAUAUUACGUCGG | -1.91 ± 0.14 | -1.75 ± 0.18 |
| AAUAAGCAAUAUUACGUUCU | -0.338 ± 0.077 | 0.0226 ± 0.11 |
| AAUAAGCAAUAUUACGUUGA | -2.96 ± 0.22 | -2.62 ± 0.2 |
| AAUCAGCAAUAUUACGAAUG | -0.581 ± 0.069 | -0.488 ± 0.12 |
| AAUCAGCAAUAUUACGACCU | 0.207 ± 0.09 | 0.538 ± 0.096 |
| AAUCAGCAAUAUUACGAGGU | -2.3 ± 0.12 | -1.36 ± 0.15 |
| AAUCAGCAAUAUUACGCGCA | -0.8 ± 0.081 | -0.264 ± 0.12 |
| AAUCAGCAAUAUUACGCGUC | -1.14 ± 0.071 | 0.513 ± 0.088 |
| AAUCAGCAAUAUUACGCUAA | -0.408 ± 0.089 | 0.12 ± 0.092 |
| AAUCAGCAAUAUUACGCUUA | -0.484 ± 0.072 | 0.347 ± 0.098 |
| AAUCAGCAAUAUUACGGCGA | -0.0143 ± 0.073 | 0.557 ± 0.093 |

| Sequence | self-splicing fitness (ln) (30 °C) | self-splicing fitness (ln) (37 °C) |
| --- | --- | --- |
| AAUCAGCAAUAUUACGGGCA | -0.515 ± 0.091 | -0.146 ± 0.12 |
| AAUCAGCAAUAUUACGGUGA | -0.138 ± 0.076 | 0.345 ± 0.087 |
| AAUCAGCAAUAUUACGGUUU | -1.35 ± 0.056 | -0.0658 ± 0.064 |
| AAUCAGCAAUAUUACGUCAA | -0.952 ± 0.077 | -0.614 ± 0.1 |
| AAUCAGCAAUAUUACGUCUU | 0.123 ± 0.06 | 0.106 ± 0.079 |
| AAUCAGCAAUAUUACGUGAC | -1.81 ± 0.085 | -1.72 ± 0.12 |
| AAUCAGCAAUAUUACGUGCG | -0.392 ± 0.058 | -0.216 ± 0.08 |
| AAUCAGCAAUAUUACGUGUG | -0.753 ± 0.053 | -0.737 ± 0.067 |
| AAUCAGCAAUAUUACGUUAC | -2.78 ± 0.13 | -1.08 ± 0.1 |
| AAUCAGCAAUAUUACGUUCA | -1.2 ± 0.091 | -0.527 ± 0.11 |
| AAUCAGCAAUAUUACGUUGU | -2.38 ± 0.1 | -1.68 ± 0.12 |
| AAUGAGCAAUAUUACGAACU | -1.11 ± 0.14 | -0.57 ± 0.16 |
| AAUGAGCAAUAUUACGAAUG | -3.34 ± 0.36 | – |
| AAUGAGCAAUAUUACGACCA | -2.14 ± 0.24 | -2.22 ± 0.37 |
| AAUGAGCAAUAUUACGAGCA | -3.45 ± 0.32 | -2.35 ± 0.29 |
| AAUGAGCAAUAUUACGCACU | -1.07 ± 0.11 | 0.105 ± 0.15 |
| AAUGAGCAAUAUUACGCGCC | -3.19 ± 0.28 | -2.73 ± 0.44 |
| AAUGAGCAAUAUUACGCGGA | -2.88 ± 0.21 | -2.13 ± 0.21 |
| AAUGAGCAAUAUUACGCGGU | -2.93 ± 0.17 | -3.12 ± 0.32 |
| AAUGAGCAAUAUUACGCUUU | -3.41 ± 0.23 | -2.34 ± 0.31 |
| AAUGAGCAAUAUUACGGAUU | -2.38 ± 0.15 | -1.04 ± 0.16 |
| AAUGAGCAAUAUUACGGCCG | -2.12 ± 0.15 | -1.36 ± 0.2 |
| AAUGAGCAAUAUUACGGCGA | -2.77 ± 0.34 | -0.446 ± 0.19 |
| AAUGAGCAAUAUUACGGGGC | -2.82 ± 0.2 | -1.93 ± 0.24 |

| Sequence | self-splicing fitness (ln) (30 °C) | self-splicing fitness (ln) (37 °C) |
| --- | --- | --- |
| AAUGAGCAAUAUUACGGGUG | -3.73 ± 0.33 | -2.72 ± 0.22 |
| AAUGAGCAAUAUUACGUAUC | -3.14 ± 0.21 | -1.14 ± 0.17 |
| AAUGAGCAAUAUUACGUCCG | -4.29 ± 0.39 | -3.13 ± 0.29 |
| AAUGAGCAAUAUUACGUUCU | -2 ± 0.085 | -1.21 ± 0.092 |
| AAUGAGCAAUAUUACGUUUA | -3.81 ± 0.35 | -2.21 ± 0.22 |
| AAUGAGCAAUAUUACGUUUU | -3.53 ± 0.16 | -2.15 ± 0.17 |
| AAUUAGCAAUAUUACGACCU | 0.197 ± 0.19 | 0.333 ± 0.21 |
| AAUUAGCAAUAUUACGACGA | -0.729 ± 0.12 | -0.15 ± 0.2 |
| AAUUAGCAAUAUUACGAGCA | -1.1 ± 0.12 | -0.758 ± 0.1 |
| AAUUAGCAAUAUUACGAUAU | -0.45 ± 0.093 | 0.012 ± 0.12 |
| AAUUAGCAAUAUUACGCAGU | -2.78 ± 0.16 | -1.3 ± 0.2 |
| AAUUAGCAAUAUUACGCCAG | – | -2.11 ± 0.31 |
| AAUUAGCAAUAUUACGCCCA | 0.555 ± 0.24 | -0.278 ± 0.36 |
| AAUUAGCAAUAUUACGCGUA | -1.07 ± 0.12 | -0.804 ± 0.14 |
| AAUUAGCAAUAUUACGCGUU | -3.13 ± 0.32 | -2.61 ± 0.28 |
| AAUUAGCAAUAUUACGCUAU | -2.55 ± 0.26 | -1.97 ± 0.31 |
| AAUUAGCAAUAUUACGCUUA | -0.993 ± 0.12 | 0.247 ± 0.14 |
| AAUUAGCAAUAUUACGGCCA | -0.657 ± 0.14 | 0.518 ± 0.17 |
| AAUUAGCAAUAUUACGGCUU | -0.0634 ± 0.092 | 0.169 ± 0.13 |
| AAUUAGCAAUAUUACGGGAG | -2.99 ± 0.19 | -2.17 ± 0.16 |
| AAUUAGCAAUAUUACGGGCC | – | -1.11 ± 0.49 |
| AAUUAGCAAUAUUACGUAAC | -1.98 ± 0.16 | -1.55 ± 0.29 |
| AAUUAGCAAUAUUACGUCGC | -3.08 ± 0.27 | -1.38 ± 0.21 |
| AAUUAGCAAUAUUACGUCUA | -0.734 ± 0.087 | -0.256 ± 0.093 |

| Sequence | self-splicing fitness (ln) (30 °C) | self-splicing fitness (ln) (37 °C) |
| --- | --- | --- |
| AAUUAGCAAUAUUACGUCUC | -0.875 ± 0.12 | -0.478 ± 0.16 |
| AAUUAGCAAUAUUACGUGCA | -0.984 ± 0.096 | -0.374 ± 0.12 |
| AAUUAGCAAUAUUACGUUGG | -3.34 ± 0.17 | -2.56 ± 0.16 |
| ACAAAGCAAUAUUACGAAAU | -3.02 ± 0.13 | -1.42 ± 0.12 |
| ACAAAGCAAUAUUACGAAUG | -1.68 ± 0.057 | -1.02 ± 0.085 |
| ACAAAGCAAUAUUACGACAU | -0.488 ± 0.011 | 0.0402 ± 0.032 |
| ACAAAGCAAUAUUACGAGCU | -0.866 ± 0.066 | -0.624 ± 0.097 |
| ACAAAGCAAUAUUACGAGGC | -2.57 ± 0.16 | -1.59 ± 0.34 |
| ACAAAGCAAUAUUACGCCAU | -3.96 ± 0.2 | -2.24 ± 0.14 |
| ACAAAGCAAUAUUACGCCUA | -1.61 ± 0.13 | -1.32 ± 0.12 |
| ACAAAGCAAUAUUACGCGCA | -0.72 ± 0.067 | -0.569 ± 0.078 |
| ACAAAGCAAUAUUACGCGUC | -4.08 ± 0.31 | -2.09 ± 0.22 |
| ACAAAGCAAUAUUACGCGUU | -3.19 ± 0.1 | -2.69 ± 0.14 |
| ACAAAGCAAUAUUACGCUAU | -2.38 ± 0.088 | -0.848 ± 0.092 |
| ACAAAGCAAUAUUACGCUCC | -1.29 ± 0.16 | -0.526 ± 0.17 |
| ACAAAGCAAUAUUACGCUCG | -0.887 ± 0.08 | 0.156 ± 0.12 |
| ACAAAGCAAUAUUACGCUUC | -3.15 ± 0.14 | -2.46 ± 0.16 |
| ACAAAGCAAUAUUACGGAUU | -2.49 ± 0.085 | -0.946 ± 0.081 |
| ACAAAGCAAUAUUACGGCAA | -0.0281 ± 0.08 | -0.252 ± 0.1 |
| ACAAAGCAAUAUUACGGGCC | -3.9 ± 0.3 | -2.32 ± 0.24 |
| ACAAAGCAAUAUUACGGGCG | -0.625 ± 0.05 | 0.111 ± 0.067 |
| ACAAAGCAAUAUUACGGGUG | -1.21 ± 0.046 | -0.593 ± 0.064 |
| ACAAAGCAAUAUUACGUACA | -1.6 ± 0.083 | -0.786 ± 0.089 |
| ACAAAGCAAUAUUACGUACU | -0.16 ± 0.049 | -0.0261 ± 0.072 |
